{"source": "paper PMC8282039", "biological_target": "CDY14HL-Fc4 (human) (UniProt Q9BYF1)", "assay": "SPR"}
{"substance": "SARS-CoV-2 receptor binding domain (RBD), Wuhan (from UniProt P0DTC2 330-530) (domain or fragment)", "values": [{"measurement": "Kd", "value": 0.031, "unit": "nM"}]}
